We go through 30 sequences from the nanobody polyreactivity screen of Harvey et al. (2022).

A short description of the series: yeast display, Sf9 membrane polyspecificity reagent, FACS + sequencing; frameworks hold sequencing errors. The essentials: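 Nanobodies came from a synthetic yeast display library in Saccharomyces cerevisiae BJ5465, induced with galactose for 36–48 hours and stained for 1 hour at 4 °C with 10% biotinylated, detergent-solubilized Sf9 membrane reagent. Cells were enriched on streptavidin microbeads and then FACS-sorted, with low and high (top ~1%) gates set on anti-HA fluorescence for expression and streptavidin fluorescence for reagent binding. Each polyreactivity label reflects the gate a clone came from. Genes were amplified by colony PCR, sequenced by MiSeq 2 × 250 and filtered by CDR length.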
Regarding “QVQLVESGGGLVQAGGSLRLSCAASGFIFPWYTRGWYRQAPGKERELVAVINQSGGSTYYADSVKGRFTISRDNAKNTVYLQMNSLKPEDTAVYYCAAKSYRGSVKLRWSERGYWGQGTQVTVSS”, the “polyreactivity (PSR sort gate)” value is reported as “high polyreactivity”.

Take “QVQLVESGGGLVQAGGSLRLSCAASGSTFPSYAMGWYRQAPGKERELVAAINRSGGSTYYADSVKGRFTISRDNAKNTVYLQMNSLKPEYTAVYYCATGLTTGGGYYWGQGTQVTVSS”: the “polyreactivity (PSR sort gate)” value was “high polyreactivity”.

For the sequence “QFQLVESGRGLVQAGGSLRLICAASGSIFIPYAMGWYRQAPGKERELVAAISSSGSTYYADSVKGRFTISRDNAKNTVYLQMNSLKPEDTAVYYCAAERHYSYSSYDYWGQGTQVTVSS”, the “polyreactivity (PSR sort gate)” value is “low polyreactivity”. Turning to “QVQLEESGGGLVQAGGSLRLSCAASGTILDSNAIGWYRQAPGKERELVAAITSCGSTYYADSVKGRFTISRDNAKNTVYLQMNSLKPEDTAVYYCAAAYLGYVAVQPSYEVGYWGQGTQVTVSS”, the “polyreactivity (PSR sort gate)” value was “low polyreactivity”.

For the sequence “QVQLVESGGGLVQAGGSLRLSCAASGRTFWRYAMGWYRQAPGKERELVADISNSDTSTYYADSVKGRFTISRDNAKNSVYLQMKSLKPEDTAVYYCAARPFRFRLSDKYNYWGQGTQVTVSS”, the “polyreactivity (PSR sort gate)” value is reported as “high polyreactivity”. For the sequence “QVHLVESGGGLVQAGGSLRLSCAASGRIFVPYVMGWNRQAPGTERELVASISDSDTSTYYADSVKGRFTISRDNAKNTVYVEMISLKPEDTAVYDCNVDYWGQGTHVTVSS”, the “polyreactivity (PSR sort gate)” value is reported as “low polyreactivity”.

Turning to “QVQLVESGGGLVQAGGSLRLICAASGSIFVLYAMGWYRTAPGKERELVAAINYDGASTYYADSVKGRFTISRDNANNTFYLQMNSLKPKDTAVYYCAADVSYPVIYEYDYGGQGTQVTVSS”, the “polyreactivity (PSR sort gate)” value is given as “low polyreactivity”. To “QVQLVESGGGLVQAGGSLRLSCAASGFIFTPYAMGWYRQAPGKERELVAAISKSGADTFYADSVKGRFTISRDNAKNTVYLQMNSLKPEDTAVYYCAADDYWGYDYWGQGTQVTVSS” belongs “high polyreactivity”.

For the sequence “QVQLVESGGGLVQAGGSIRLSCAASGSTLQGNAMGWYRQAPGKERELDAAISRSGGSTYADSVKGRFTISRDNAKNTVYLLMNSLKPEDTAVYYCAAYSGVGYLWFVYWGQGTQVTVSS”, the “polyreactivity (PSR sort gate)” value is recorded as “low polyreactivity”.

In the case of “QVQLVESGGGLVQAGGSLRLSCAASGSTIVPNTMGWYRQAPGKERELVAGITSGGSTYYADSVKGRFTISRDNAKNTVYLQMNSLKPEDTAVYYCAADDGSTANEKLIHEYNYWGQGTQVTVSS”, the “polyreactivity (PSR sort gate)” value is given as “low polyreactivity”. As to “QVQLVESGGGLVHAGGSLRLSCAASGSTFGYYAMGWYRQAPGTERELVADINWNGGSTNYADSVKGRFTISRDTEKKTVYLQMNSLKPEDTAVYFCAKGLRPYRFYYWGQGTQVTVSS”, the “polyreactivity (PSR sort gate)” value is listed as “high polyreactivity”. To “QVQLVESGGGLVQAGGSLRLSSAASGSIFRGYAMGWYRQAPEKERELVAAISRRGGSTYYADSVKGRFTISRDNAKNTVYLQMNSLKPEDTAVYYCAKDGTGAGTYDYWGLGTQVTVSS” belongs “low polyreactivity”. Then “QVQLVESGGGLVQAGGSLRLSCAASGRIFVANGLGWYRQAPGKERELVAAITWSGDNTYYADSVKGRFTISRDNAKNTVYLQMNSLKPEDTAVYYCATPRSWYFPYGYWGQGTQVTVSS”, with “high polyreactivity”. To “QVQLVESGGGLVQAGGSLRLSCAASGRIFLRNAMGWYRQAPGNERELVATITSRGGSTYYADSVKGRFTISRDNAKNTVYLQMNSLKPEDTAVYYSAADPSRYRSFGYVYGGYYYWGQGTQVTVSS” belongs “low polyreactivity”; to “QVQLVESGGGLVQAGGSLRLSCAASGSTFRAYAMGWYRQAPGTEWELVAAISAGGSTNYADSVKGRFTISRDHAKNTVSLQMNCLKRDDTAVYYCAKGWYYVSPYGYRKRVYYWGQGTQVTVSS”, “high polyreactivity”; to “QVQLVESGGGLVQAGGSLRLSCAASGFTIGRYAMGWYRQAPGKERELVAAISKNGGRTYYADSVKGRFTISRDNAKNTVYLQMNSLKPEDTAVYYCNTDWYYTGRVHGFDYWGQGTQVTVSS”, “high polyreactivity”. Consider “QVQLVESGGRLVQAGGSLRLSCAASGSTVGYNALGWYRQAPGKASELVAAITSRGSTNYADSVKGRFTISRDNAKNTVYLQMNSLKPEVTAVYYCAKATSSSEYGYDYWGQGTQVTVSS”, for which the “polyreactivity (PSR sort gate)” value is reported as “high polyreactivity”. Then “QLQLVESGGGLVQAGASLRLSCADSRRIFDYNVMGRYIQAPGKEREVVADINGSGGGTNYEDSVKGRFTISRDNAKNTVYLQMNILKPEDTAVYYCNADSYEYHVPYYDYRYDYWGQGTQVTVSS”, with “low polyreactivity”; and “QVQLVESGGGLVQAGGSLRLSCAASGRTFRSYAMGWYRQAPGKERELVAAINTNGGSTYYADSVKGRFTISRDNAKNTVYLQMNSLKPEDTAVYYCRAWAQNQFNYWGQGTQVTVSS”, with “high polyreactivity”. As for “QVQLVESGGGLVQAGGSLRLSCAASGLTFRRYAMGWYRQAPGKERELVAGISRGGSTYYADSVKGRFTISRDNAKNTVYLQMNRLKPEDTAVYYCAAYNSGTYPVQPVPYDMDYWGQGTQVTVSS”, the “polyreactivity (PSR sort gate)” value was “low polyreactivity”. Then “QVQLVESGGGLVQAGGSLRLSCAASGRTFFRYVMGWYRQAPGKERELVAAISRSGGSTYYADSVKGRFTISRDNAKITVYLQMNSLKTEDTAVYYCNSVARSTVVPTEFDYWGQGTQVTVSS”, with “high polyreactivity”; and “QVELVESAAGLVQAGGSLRLSCAASALTFSRYTMGWYSQAPGKDRELVAAISRSGASTYYADSVKGRFTISRDNAKNTVYLQTNSLTPEDTGVYYCAKTSTSYGSLPKVTPYPLDYWGQGTQVTVSS”, with “high polyreactivity”.

Turning to “QVQLVESGGGLVQAGGSLRLSCAAYGSTFYNNVMGWYRPAPGKERELVAAINSGGRTYYADSVKGRFTISRDNAKNTVYLQMNSLKPEDTAVYYCAVGYGRAGRMDYWGQGTQVTVSS”, the “polyreactivity (PSR sort gate)” value is reported as “high polyreactivity”. “QVQHVESGVGLVQPVGSLRLSCAASGSTIVSNAMGWERQAPGKERELVAAISTSGGTTDYPDSVKGRFTISRHNAKNTVYLQMNCLKPEDTAVYYCAARHYYVKHSYDYWGQGTQVTVSS”: the “polyreactivity (PSR sort gate)” value is on record as “low polyreactivity”. To “QVQLVESGGGLVQAGGSLRLSCAASGIIFYYYAMGWYRQAPGKERELVAAISTSGGRTYYADSVKGRFTISRDNAKNTVYLQMNSLKPEDTAVYYCNTKVISRTSERRGNGFTRYDYWGQGTQVTVSS” belongs “low polyreactivity”; to “QVQLVESGGGLVQAGGSLRLSCAASGGTIYFYDMGWYRQAPGKEREFVAAIDGSAGRTYYADSVKGRFTISRDNAKNTVYLQMNSLKPEDTAVYYCAADWAQQSEQEYGTTYDYWGQGTQVTVSS”, “low polyreactivity”. Consider “QVQLVESGGGLVQAGGSLRLSCAASGSIFIQYAMGWYRQAPGKERELVAAITSGDDTYYADSVKGRFTISRDNAKNTVYLQMNSLKPEDTAVYYCAKRAHFSSARHVYYIYDYWGQGTQVTVSS”, for which the “polyreactivity (PSR sort gate)” value was “low polyreactivity”. Then “QVQLVESGGGLVQAGGSHRFRCAASGSTIVSDAMGLYRHAPGKERELDATISWRGGSTYYADSVKGRFTISRDNAKNTVYLQMNSLKPEDTAVYDCAADLWHSQYYYGYEYWGQGTQVNVSS”, with “low polyreactivity”; and “QVQLVESGGGLVQAGGSLRLSCAASGRTFRTYTMGWYRQAPGKERELVAAITSTGSTYYADSVKGRFTISRDNAKNTVYLQMNSLKPEDTAVYYCAAVYVAVGLVYEKYDYWGQGTQVTVSS”, with “high polyreactivity”. To “QVQLVESGGGLVQAGGSLRLSCAASGFTFRYYAMGWYRQAPGKERELVAAISSGGSTYYADSVKGRFTISRDNAKNTVYLQMNSLKPEDTAVYYCATYLAEYGYWGQGTQVTVSS” belongs “high polyreactivity”.
